Assay results taken from patent publication US20110136223A1 (Genentech, published 2011).
Values belong to the binder of their own block, whether it stands above or below them.

Key:
[1] = molecular target: T1, recombinant soluble rat GDNFRα (rat, UniProt Q62997 25-430, limits assumed); assay: displacement of 125I-rGDNF from soluble GDNFRα by unlabeled NTN (10 nM)
T1 construct: also called rGDNFRα; GFR-alpha-1
T1 sequence: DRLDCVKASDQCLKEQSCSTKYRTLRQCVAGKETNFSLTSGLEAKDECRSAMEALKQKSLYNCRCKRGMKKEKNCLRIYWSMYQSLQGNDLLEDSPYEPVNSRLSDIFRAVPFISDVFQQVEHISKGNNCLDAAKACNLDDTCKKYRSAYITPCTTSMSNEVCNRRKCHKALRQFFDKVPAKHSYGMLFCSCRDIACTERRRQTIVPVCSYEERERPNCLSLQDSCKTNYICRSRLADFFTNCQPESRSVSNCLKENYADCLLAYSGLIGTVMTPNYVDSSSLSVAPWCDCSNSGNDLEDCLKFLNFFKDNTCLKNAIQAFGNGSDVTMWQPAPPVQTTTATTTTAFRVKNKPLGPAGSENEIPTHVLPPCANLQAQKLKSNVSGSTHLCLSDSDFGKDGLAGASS

[2] = molecular target: T2, rat NTNRα, endogenous on embryonic (E14) rat spinal motoneurons (rat); assay: cell-based or functional assay
T2 sequence (chain, GPI-linked): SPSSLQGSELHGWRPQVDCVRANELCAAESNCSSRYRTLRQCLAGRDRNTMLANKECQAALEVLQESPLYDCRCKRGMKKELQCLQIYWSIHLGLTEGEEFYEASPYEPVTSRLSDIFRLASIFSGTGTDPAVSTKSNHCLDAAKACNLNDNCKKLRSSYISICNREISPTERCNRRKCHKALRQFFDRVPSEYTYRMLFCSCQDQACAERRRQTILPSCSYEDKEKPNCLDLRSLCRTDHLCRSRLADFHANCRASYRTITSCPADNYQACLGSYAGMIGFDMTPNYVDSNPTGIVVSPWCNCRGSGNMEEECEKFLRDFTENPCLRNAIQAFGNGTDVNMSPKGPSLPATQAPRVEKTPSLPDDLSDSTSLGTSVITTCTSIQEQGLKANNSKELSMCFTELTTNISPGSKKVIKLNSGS

[3] = molecular target: T1, recombinant soluble rat GDNFRα; assay: competition binding of 125I-rGDNF to soluble rGDNFRα, Scatchard analysis
[4] = molecular target: T1, recombinant soluble rat GDNFRα; assay: binding of biotinylated NTN

Kd [1]: > 1 nM
B1: Neurturin (NTN), species not stated at the place of use (ligand, UniProt Q99748 96-197, looked up, species assumed)
Neurturin: ARLGARPCGLRELEVRVSELGLGYASDETVLFRYCAGACEAAARVYDLGLRRLRQRRRLRRERVRAQPCCRPTAYEDEVSFLDAHSRYHTVHELSARECACV
reduction of the motoneuron survival response to NTN after PIPLC treatment (FIG. 7C) [2]: 50 to 90%
survival of E14 rat spinal motoneurons, counted 72 hours after addition of factor [2]: 50%

Kd [3]: 3 pM
B2: rat glial cell line-derived neurotrophic factor (ligand, UniProt Q07731 78-211, looked up)
chain: SPDKQAAALPRRERNRQAAAASPENSRGKGRRGQRGKNRGCVLTAIHLNVTDLGLGYETKEELIFRYCSGSCEAAETMYDKILKNLSRSRRLTSDKVGQACCRPVAFDDDLSFLDDSLVYHILRKHSAKRCGCI
modifications: 125I-labelled when used as tracer (iodinated either on tyrosine by the Bolton Hunter method or on lysine using lactoperoxidase)
notes: also called rGDNF; rat GDNF

Kd [4]: > 1 mM
B3: mouse Neurturin (ligand, UniProt P97463 96-195, looked up)
chain: PGARPCGLRELEVRVSELGLGYTSDETVLFRYCAGACEAAIRIYDLGLRRLRQRRRVRRERARAHPCCRPTAYEDEVSFLDVHSRYHTLQELSARECACV
modifications: 125I-labelled when used as tracer
notes: also called mouse NTN; mNTN
